From PMC10896730

Target: oxidative phosphorylation (OXPHOS) complex III (CIII), all subunits (mouse (endogenous in skeletal muscle)) (UniProt Q9CZ13)
Assay: affinity purification with mass spectrometry; IP of UQCRC2 from mouse hindlimb Skm extracts, LC–MS; stoichiometry from the slopes of protein abundance against effective number of tryptic peptides; approximate

UniProt Q9CZ13, sequence (Q9CZ13 whole entry, looked up, tested part not stated, one chain of several): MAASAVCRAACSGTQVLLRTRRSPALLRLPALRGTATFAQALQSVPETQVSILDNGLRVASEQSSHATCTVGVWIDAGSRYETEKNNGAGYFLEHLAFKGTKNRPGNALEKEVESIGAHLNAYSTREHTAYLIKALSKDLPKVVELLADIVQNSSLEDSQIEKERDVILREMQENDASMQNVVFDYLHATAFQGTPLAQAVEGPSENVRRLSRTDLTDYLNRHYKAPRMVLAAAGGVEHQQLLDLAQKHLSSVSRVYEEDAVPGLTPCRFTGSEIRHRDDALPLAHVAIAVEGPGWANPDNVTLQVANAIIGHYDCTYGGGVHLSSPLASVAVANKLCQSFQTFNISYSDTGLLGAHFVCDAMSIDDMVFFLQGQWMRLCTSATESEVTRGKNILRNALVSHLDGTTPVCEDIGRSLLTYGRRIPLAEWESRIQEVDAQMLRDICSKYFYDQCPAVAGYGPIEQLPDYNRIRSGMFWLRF

B1: electron-transfer flavoprotein dehydrogenase (ETFDH) (natural protein)
chain: SSTSAVPQITTHYTVHPREKDKRWEGVNMERFAEEADVVIVGAGPAGLSAAIRLKQLAAEQGKDIRVCLVEKAAQIGAHTLSGACLDPAAFKELFPDWKEKGAPLNTPVTEDRFAILTEKHRIPVPILPGLPMNNHGNYIVRLGHLVSWMGEQAEALGVEVYPGYAAAEVLYHEDGSVKGIATNDVGIQKDGAPKTTFERGLELHAKVTVFAEGCHGHLAKQLYKKFDLRASCDAQTYGIGLKELWIIDEKKWKPGRVDHTVGWPLDRHTYGGSFLYHLNEGEPLVAVGFVVGLDYQNPYLSPFREFQRWKHHPSIQPTLEGGKRIAYGARALNEGGLQSIPKLTFPGGLLIGCSPGFMNVPKIKGTHTAMKSGSLAAESIFKQLTSENLQSKTTGLHVTEYEDNLKQSWVWKELHAVRNIRPSCHGILGVYGGMIYTGIFYWILRGMEPWTLKHKGSDSDQLKPAKDCTPIEYPKPDGQISFDLLSSVALSGTNHEHDQPAHLTLKDDSIPVNRNLSIYDGPEQRFCPAGVYEFVPLEQGDGFRLQINAQNCVHCKTCDIKDPSQNINWVVPEGGGGPAYNGM
  stoichiometry N (ETF complex per CIII complex): 0.5
